experiment: soluble on expression in E. coli; label from the status in PepcDB or PDB records

Sequence	soluble on expression in E. coli
MGSDKIHHHHHHMSSATHYILTWQCPDNTGVLAKVSQSLFSHGAFITETSQYSDPYSETFFSRIAFDDRNLTVSSSEFVKALNELAKPLAMQYQLRKRADVPNVLIAVSKDDHCLVSLLTKWRSGALPINIVGVISNHQYCQALSEWHNVPFYHLPVNAETKLEQEAQITDLMEELNIDLLVLARYMQILSDGLCQQLQGKAINIHHSFLPSFKGARPYHQAHARGVKVIGATAHYVTANLDEGPIIAQEVKPINHAFTIEQMVHMGHDLEATALSHAVRIHAEQRVCINGDKTVILA	not soluble
MGCSGGDATACANLAQMYENKKNADSNDKENALQLYAVACQGGDMLACNNLGWMFANGSGVPKDYYKAISYYKFSCENGNDMGCYNLGLMSNVNNIYGIDKAQLSQVDLNYLACNAGDMMGCANLGWIYANGDLGAPLNNHYAAKYFQMACDGGILGSCNNLGVLYQKGLGVPQDDQRALDLFSYACDNGFESSCRNYGNFKEHLLRVNPNYGRLFMPYNSYDIPLEHHHHHH	not soluble
MGSDKIHHHHHHMKIHPIPPLQCLVFFDAAARHGNFTRAAEELNVTQGAVSKQVVKLESYLGMQLFVRDAKALHLTRAGQTYAGRIHDMLTGCAEATALVMKEPSPHSITIACASGTAGMFLTPIIADFSHEYPNVAIRILVREGVFNLNPAEFDIGVYYIRDVPPPGMSGIRIIEEEVQAYCAPSYLGRRRVSPHELTNVTLLVAEEQQRQWMSWRDWFHLCDSEIAYKPSRTITANSYPVLLQLALRGHGVLLGWNQMITPLVERSDLVLASDASASFGGAYQLVWPDDRRDTAAVTHFREWLLKRVPWKG	not soluble
MSASQKEGKLSTATISVDGKSAEMPVLSGTLGPDVIDIRKLPAQLGVFTFDPGYGETAACNSKITFIDGDKGVLLHRGYPIAQLAENASYEEVIYLLLNGELPNKAQYDTFTNTLTNHTLLHEQIRNFFNGFRRDAHPMAILCGTVGALSAFYPDANDIAIPANRDLAAMRLIAKIPTIAAWAYKYTQGEAFIYPRNDLNYAENFLSMMFARMSEPYKVNPVLARAMNRILILHADHEQNASTSTVRLAGSTGANPFACIAAGIAALWGPAHGGANEAVLKMLARIGKKENIPAFIAQVKDKNSGVKLMGFGHRVYKNFDPRAKIMQQTCHEVLTELGIKDDPLLDLAVELEKIALSDDYFVQRKLYPNVDFYSGIILKAMGIPTSMFTVLFAVARTTGWVSQWKEMIEEPGQRISRPRQLYIGAPQRDYVPLAKR	soluble
MLAQQRLDFEFRPMTAADVGNAHELSIALKWPHRLEDWAMLQRVAQGFVAVRNGRLIGSAFACHQGEFSTIGLVIVSDDYQGKGIGRKLMELAVGSIPPRTAILNATLAGAPLYEKMGFVSFGEIQQRQGQAQLPDATLLTAEESCRVLSEADHDRVLELGNAGSGLDRSVTLGDLLNNLEHAVGIDRDGQLQAFALLRPFGRGLCIGPVVAQTVEQARHMIEHLLARVPYAFVRIDIPTHCGLADWLEAAGLKRVDSVTCMSMGAVPQAREGVSQFALITQAIG	not soluble
MNLLVIGGHERMEKDYMVMAKKKGYKTKVYTTMSSKLNNSIGRPDAVVILTSTVSHKMSRTVESQAKKQDILIVRHKNSLEHHHHHH	soluble
MGSDKIHHHHHHMTDNIKSRRSAVPGCAIHCHDCSMGTLCIPFTLNNNELDQLDDIIERKKPIQKGEQIFKSGDSLKSLYAIRSGTIKSYTITEQGDEQITGFHLAGDVIGFDGIHSQIHQSFAQALETSMVCEIPFDTLDELSGTMPKLRQQIMRLMSNEIQSDQEMILLLSKKNAEERLAAFISNLASRFGSRGFSPKEFRLTMTRGDIGNYLGLTVETISRLLGRFQKAELIEVKGKYITIVDFDSLNKLAGNNKIGR	not soluble
MVKSFLMLGQSNMAGRGFINEVPMIYNERIQMLRNGRWQMMTEPINYDRPVSGISLAGSFADAWSQKNQEDIIGLIPCAEGGSSIDEWALDGVLFRHALTEAKFAMESSELTGILWHQGESDSLNGNYKVYYKKLLLIIEALRKELNVPDIPIIIGGLGDFLGKERFGKGCTEYNFINKELQKFAFEQDNCYFVTASGLTCNPDGIHIDAISQRKFGLRYFEAFFNRKHVLEPLINENELLNLNYARTHTKAEKIYIKSMDFALGKISYDEFTSELMKINNDLEHHHHHH	soluble

Reference: the DeepSol protein solubility set
